± gives the half width of the 95% confidence interval.
Test: folding stability dG unfold from trypsin proteolysis; higher = more stable
Method in brief: (§1)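 Designed mini-proteins with no cysteine and under 80 residues were kept only if AlphaFold2 dimer inter-PAE was above 15. In a PA-tagged cDNA display construct, they were digested with trypsin and chymotrypsin and then sequenced. K50 was inferred by Bayesian fitting of counts, and unfolding free energy was derived per protease or combined against a sequence-predicted unfolded-state K50 and a shared folded-state K50.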

Point of comparison: “SAGGSAGGSAGGGIKIKIISVKPLPDGSVLVKAKIIFPDGKEKEILILFNKNGEIKIFEKSAGGSAGGSAGG [r7_860_TrMRF]”, “folding stability dG unfold” value 3.04 ± 0.11 kcal/mol. Against it:
- SAGGSAGGSMTVTYTEVGDQLVVTTPDGRRYVITLSGDVTYDPATGTVTVPPGETMTPVPVPASAGGSAGGS [r20_158_JUSTAS] — lower, 1.61 ± 0.021 kcal/mol
- SAGGSAKVKIEFFQMPPGGNPRDMQKKAQDKGDIFIIVNKPGWMIVITADDPEDANTIAKEILEEFSAGGSA [r15_546_TrROS] — lower, 0.735 ± 0.086 kcal/mol
- SMTIRVEGVPPGVTAEELAARLRAELEAAGYEVTSIKVTRRADGSLVVEIEVKPAPPPEPVEVVEEREEESA [r9_953_TrROS_Hall] — higher, 3.4 ± 0.13 kcal/mol
- SAGIVIPINNPEQAEELAKEFAPEYGYEVEIERVPPGEPLEELPPNDIIVHDPDSGWFYKIKIKRPDEKSAG [r5_173_TrROS] — lower, 0.38 ± 0.1 kcal/mol
- SAGGSAGGSAGGMVTTLEVTVSPDGVITVTTVTTDAAGTPVTTTTTTTVLGPGGPVLAVSAGGSAGGSAGGS [r10_484_JUSTAS] — lower, 2.05 ± 0.13 kcal/mol
- SAGGEKIKLKVVIKVPKELKNLSKEEIEELLKKKLGPNYKITKVEIKVEKNENGEEYLVVEVEIEKESAGGS [r16_408_TrROS_Hall] — higher, 3.64 ± 0.21 kcal/mol
- SAGGSMLIKIKLPKNNPLRDKIVEKLKKSPYVKDVKVKRLKELPNYEIFLIEVDGDPKVADEIKKLASAGGS [r16_394_TrMRF] — lower, 2.16 ± 0.09 kcal/mol
- SAGGSAGGSGLEILEEREAVFPLHGLVVKREVVVRSPDGVPLVFVEVEAHPELLPLVERLFERSAGGSAGGS [r12_457_TrMRF] — lower, 0.212 ± 0.054 kcal/mol
- SAGGSAGGSAGGISPSANVKLVAVDPERGLVVAVAKDPNSGSVSVVVFDANGNSSILPASAGGSAGGSAGGS [r10_450_TrMRF] — lower, -0.317 ± 0.079 kcal/mol
- MPAISIEEIIKLAKEAGKPAPPTVIVFNYKFGNTTRTLPVPLSEPVSLAEVEAAIKAADPNVTEITLTFVPS [r1_135_JUSTAS] — lower, 0.551 ± 0.088 kcal/mol
- SAGGSAMPVEFPSEGVVEAVNPKTGKVYLIRYETGDTKTRFVIFEPGTGEVRVIDEDTTFEEAVEDSAGGSA [r15_234_TrMRF] — lower, 0.802 ± 0.036 kcal/mol
- SYIKIPFNVWMPPDNAEAMAEEFANNLAQKHGWKIKGIKPVEPVPSPDGEWYPFRVSITIRMPDPEAINASA [r9_302_TrROS] — lower, 1.62 ± 0.031 kcal/mol
- SAGGSAKWLPAEELADELADTLMQRHGYEIKNVDVEVIDPDEGYIRVNIEYEHPGGRHKHDIIIPVSAGGSA [r15_32_TrROS] — lower, 0.1 ± 0.18 kcal/mol
- SGLKPNEVKKFTFSFPVTDPVTGKEVTATVELYVSAGNPFVVVKLTVTPPDGKTETKTFVVPPGATLTIDSA [r9_88_TrMRF] — lower, 1.73 ± 0.054 kcal/mol
- SAGGSAGGSEVKTITLTIKNKETNKEIKIEVQVFKNEDGELVFIAKAEITYNGKKYTFTVLLPSAGGSAGGS [r12_619_TrROS_Hall] — higher, 3.82 ± 0.27 kcal/mol
- SMSEVVEESEFNGEKVITIKVTLPDGTPVTVTITLSPEGEGTVTTVPPSSSTSTTTTVPVSQVDEVLEALSA [r9_91_JUSTAS] — lower, 1.95 ± 0.061 kcal/mol
- SAMKPGEKVKIKIITFEKKKDPKTGEEKIEMKEIEIEATITEVEEKDGKVTVKIKIENLPPGAMIIIEKSAG [r14_412_TrROS_Hall] — lower, 2.05 ± 0.069 kcal/mol
- SAGGSAGGSAGRAEIPITFNGKKVEVEVEPDPDNGHPIITIKFGNKPVVINPDGQIRPFPSAGGSAGGSAGG [r11_732_TrROS] — lower, -0.0507 ± 0.11 kcal/mol
- SSPEEDLEEIEITVTNPNDPRPSFVKVTRSPEGYEATFTLPDGKTVKIPPELGLEEIKKLPSSFTITILPSA [r9_781_JUSTAS] — lower, 0.0376 ± 0.059 kcal/mol
- SAMTEEEKKKKKEEEEKKKRELKIIVVAKTKDGKWKKIAEFTVKNKDMSIEELVKKLKDLGVEEVKIFPSAG [r14_318_TrROS_Hall] — lower, 1.8 ± 0.082 kcal/mol
- SAHRIMIMFDSPEQAEEIIRKIAEEMGWKPKNIDVEVHPFPVTRPTPDGKKEEHPMYWVTIEIKLKPKKSAG [r14_773_TrROS] — lower, 1.94 ± 0.066 kcal/mol
- SAGGSAGGSVRIPGGQPNTKVTVTVRLPDGTPVEVEATVNPSGEITLDLPDVSPDLIESIELSSAGGSAGGS [r12_477_JUSTAS] — lower, 1.14 ± 0.019 kcal/mol
- SAGGSGEVRPLELEFTLPNGAKIKITLHVYPDGTVKVEARIEFGGEYLELRFEFEGEKVPLDFPDFGSAGGS [r16_523_TrMRF] — higher, 3.58 ± 0.13 kcal/mol
- SAGGSNVEVERHPDGHMTFTFPDEDGKDVKITIHMHPDGMYMIRVPGNNQPIYFPPGQSIEDLLKLSAGGSA [r2_338_TrROS] — lower, 2.2 ± 0.069 kcal/mol
- SAGGSAGGMTFTFPPGARVRIAIYNKNGELIEEREIDEPGAKITIEKDEETGEWRIVSIELLEPSAGGSAGG [r6_523_TrROS_Hall] — within error, 3.12 ± 0.084 kcal/mol
- SGMDTVTPTTSTTQYFVEPNPEPVLSISTTTDTTTDPANPGVVTVTTTTTITDPRTGTTTTTPTTTTVPASA [r9_342_JUSTAS] — lower, 0.142 ± 0.019 kcal/mol
- LDPNKPENIALLEKVEEAAKAVIEELEKAGYKVEKLYVALGPNGIKIAPVTIPPEFIEELKKAGILVIPVLS [r1_134_TrMRF] — lower, 1.49 ± 0.11 kcal/mol
- SKIRIIRPERSLEIDLPKSARIEFDPETRRIYFINPDGERLEFPLGPNAVIIPGDDEITIIDPPASPENPSA [r9_653_TrMRF] — lower, 2.21 ± 0.038 kcal/mol
- SAGGSAGGMTIEVTFPDGTKLTITLENDGPDTLLATAEVEAPRAGGPSIPKEVAAKLAEELLASSAGGSAGG [r6_234_TrMRF] — lower, 1.19 ± 0.061 kcal/mol
- SAGGEKIKEALEKVPGLEIVKVEKKDGKVYIHIKAKSEEQRKKAAEALKKLPGIKEVKIEVIPEEELSAGGS [r16_671_TrROS_Hall] — within error, 3.28 ± 0.15 kcal/mol
- SAGGSAGGIMIDSPEQMEEFAKDFFQNGYHEVPIHVMDPNGNWQTFPFTIEVPPPKPEPDPGKKSAGGSAGG [r6_258_TrROS] — lower, -0.648 ± 0.12 kcal/mol
- SAGGSAMKLTFTDSKGRTIEITVEKKYLPNGEPYLIITIKYPDTDEEIVITMPTSNIDEILEKLLNSAGGSA [r15_92_JUSTAS] — higher, 4.06 ± 0.32 kcal/mol
- SAGGSAKKKVTITVEKKGDKYLVTIEVDGKTVVIEVPKDTTIEEIAAALPPGAKIKEIKVVKAEELSAGGSA [r15_1058_TrROS_Hall] — lower, 0.716 ± 0.034 kcal/mol
- SAMPLDDLPAEQIRELVRSIMRKHGMPPDNVEVDVEVQRPPDGYYYITVDVEMRMNGKERKYKFTIWIPSAG [r14_703_TrROS] — within error, 2.99 ± 0.072 kcal/mol
- SAARKIAKKLKEAFPNFPIKDIEITEYEPNPNGRPYMNISIQFPNGGKMEIQFDDPEHPEIREAIREIMSAG [r14_143_TrROS] — lower, 1.59 ± 0.11 kcal/mol
- SAGGSAGGPVKIHVHVNPEEGYYMIEVRSGNEPRHIMIPMDKEEIKSFIENLPPGIEVEIHPMPSAGGSAGG [r6_401_TrROS] — lower, 1.37 ± 0.067 kcal/mol
- SAGGMADEELANMSLEEVIAAVKEAGAKTVTVTFPDGSTLTIDLGDDGVVTVTLTTPPGEKETFEIPSAGGS [r8_51_TrMRF] — lower, 2.34 ± 0.17 kcal/mol
- SAGGMLVRVTLPSGETVELPVTSLDAAARRLREELGLPAGARLRVEVYDPVTGEVTEYELVIPVPEPVSAGG [r13_145_TrMRF] — higher, 4.92 ± 0.18 kcal/mol
- SAMEIEIEPLEKEELLKLPGAEIRLFYFPDRVLAEILLPDGTPFFVEFDPSLKPEEVLEKLLKLLEELGSAG [r14_618_TrMRF] — higher, 3.98 ± 0.18 kcal/mol
- SAGKMKIISVKIENNTITIEIYKDGKKIKKIEIKKNKKKIIIKIEIEPGEEIKIKIEINGKTYEITIKPSAG [r5_533_TrROS_Hall] — within error, 2.89 ± 0.26 kcal/mol
- SAGGSAAVDLSERPPALPVPLKVEVIPIPETGSSLVLVTHPDGFVLLARVNPEGEVELLSAFSLDDSAGGSA [r15_790_TrMRF] — lower, 1.56 ± 0.066 kcal/mol

Test: folding stability dG unfold (combined trypsin and chymotrypsin); higher = more stable
Method in brief: as §1

Point of comparison: “SAGGSAGGSAGGGIKIKIISVKPLPDGSVLVKAKIIFPDGKEKEILILFNKNGEIKIFEKSAGGSAGGSAGG [r7_860_TrMRF]”, “folding stability dG unfold” value 3.71 ± 0.087 kcal/mol. Against it:
- SAGGSAGGSMTVTYTEVGDQLVVTTPDGRRYVITLSGDVTYDPATGTVTVPPGETMTPVPVPASAGGSAGGS [r20_158_JUSTAS] — lower, 1.99 ± 0.039 kcal/mol
- SAGGSAKVKIEFFQMPPGGNPRDMQKKAQDKGDIFIIVNKPGWMIVITADDPEDANTIAKEILEEFSAGGSA [r15_546_TrROS] — lower, 0.954 ± 0.092 kcal/mol
- SMTIRVEGVPPGVTAEELAARLRAELEAAGYEVTSIKVTRRADGSLVVEIEVKPAPPPEPVEVVEEREEESA [r9_953_TrROS_Hall] — within error, 3.62 ± 0.17 kcal/mol
- SAGIVIPINNPEQAEELAKEFAPEYGYEVEIERVPPGEPLEELPPNDIIVHDPDSGWFYKIKIKRPDEKSAG [r5_173_TrROS] — lower, 0.29 ± 0.24 kcal/mol
- SAGGSAGGSAGGMVTTLEVTVSPDGVITVTTVTTDAAGTPVTTTTTTTVLGPGGPVLAVSAGGSAGGSAGGS [r10_484_JUSTAS] — lower, 2.03 ± 0.12 kcal/mol
- SAGGEKIKLKVVIKVPKELKNLSKEEIEELLKKKLGPNYKITKVEIKVEKNENGEEYLVVEVEIEKESAGGS [r16_408_TrROS_Hall] — within error, 3.58 ± 0.23 kcal/mol
- SAGGSMLIKIKLPKNNPLRDKIVEKLKKSPYVKDVKVKRLKELPNYEIFLIEVDGDPKVADEIKKLASAGGS [r16_394_TrMRF] — lower, 2.83 ± 0.15 kcal/mol
- SAGGSAGGSGLEILEEREAVFPLHGLVVKREVVVRSPDGVPLVFVEVEAHPELLPLVERLFERSAGGSAGGS [r12_457_TrMRF] — lower, 0.138 ± 0.099 kcal/mol
- SAGGSAGGSAGGISPSANVKLVAVDPERGLVVAVAKDPNSGSVSVVVFDANGNSSILPASAGGSAGGSAGGS [r10_450_TrMRF] — lower, 0.267 ± 0.043 kcal/mol
- MPAISIEEIIKLAKEAGKPAPPTVIVFNYKFGNTTRTLPVPLSEPVSLAEVEAAIKAADPNVTEITLTFVPS [r1_135_JUSTAS] — lower, 1.07 ± 0.16 kcal/mol
- SAGGSAMPVEFPSEGVVEAVNPKTGKVYLIRYETGDTKTRFVIFEPGTGEVRVIDEDTTFEEAVEDSAGGSA [r15_234_TrMRF] — lower, 0.674 ± 0.088 kcal/mol
- SYIKIPFNVWMPPDNAEAMAEEFANNLAQKHGWKIKGIKPVEPVPSPDGEWYPFRVSITIRMPDPEAINASA [r9_302_TrROS] — lower, 1.82 ± 0.098 kcal/mol
- SAGGSAKWLPAEELADELADTLMQRHGYEIKNVDVEVIDPDEGYIRVNIEYEHPGGRHKHDIIIPVSAGGSA [r15_32_TrROS] — lower, 0.662 ± 0.17 kcal/mol
- SGLKPNEVKKFTFSFPVTDPVTGKEVTATVELYVSAGNPFVVVKLTVTPPDGKTETKTFVVPPGATLTIDSA [r9_88_TrMRF] — lower, 3.2 ± 0.17 kcal/mol
- SAGGSAGGSEVKTITLTIKNKETNKEIKIEVQVFKNEDGELVFIAKAEITYNGKKYTFTVLLPSAGGSAGGS [r12_619_TrROS_Hall] — higher, 4.43 ± 0.31 kcal/mol
- SMSEVVEESEFNGEKVITIKVTLPDGTPVTVTITLSPEGEGTVTTVPPSSSTSTTTTVPVSQVDEVLEALSA [r9_91_JUSTAS] — lower, 1.61 ± 0.074 kcal/mol
- SAMKPGEKVKIKIITFEKKKDPKTGEEKIEMKEIEIEATITEVEEKDGKVTVKIKIENLPPGAMIIIEKSAG [r14_412_TrROS_Hall] — lower, 3.18 ± 0.086 kcal/mol
- SAGGSAGGSAGRAEIPITFNGKKVEVEVEPDPDNGHPIITIKFGNKPVVINPDGQIRPFPSAGGSAGGSAGG [r11_732_TrROS] — lower, 0.0302 ± 0.19 kcal/mol
- SSPEEDLEEIEITVTNPNDPRPSFVKVTRSPEGYEATFTLPDGKTVKIPPELGLEEIKKLPSSFTITILPSA [r9_781_JUSTAS] — lower, 0.561 ± 0.064 kcal/mol
- SAMTEEEKKKKKEEEEKKKRELKIIVVAKTKDGKWKKIAEFTVKNKDMSIEELVKKLKDLGVEEVKIFPSAG [r14_318_TrROS_Hall] — lower, 2.67 ± 0.26 kcal/mol

Source: the supplement of paper PMC12764529
